Laboratory results reported in publication PMC4012616.
pKd: −log10 of the molar value.

Tests used:
Test in all cases: MST
[1] = biological target: H3K9me1 MLA (Methyl Lysine Analog) histone H3 (UniProt P84233)
[2] = biological target: H3K9me2 MLA (Methyl Lysine Analog) histone H3 (UniProt P84233)
[3] = biological target: H3K9me3 MLA (Methyl Lysine Analog) histone H3 (UniProt P84233)

pKd [1]: 5.21
pKd [2]: 5.69
pKd [3]: 6.80
Substance: EAP-1 chromodomain fused to GST (EAP-1chromo) (domain or fragment)
